US20240117018A1

What was measured:
Assay in all cases: cell-based or functional assay
[1] = target: Env of HIV-1 pseudovirus 1006_11_C3_1601 (HIV-1)
[2] = target: Env of HIV-1 pseudovirus 1012_11_TC21_3257 (HIV-1)
[3] = target: Env of HIV-1 pseudovirus 1054_07_TC4_1499 (HIV-1)
[4] = target: Env of HIV-1 pseudovirus 263-8 (HIV-1)
[5] = target: Env of HIV-1 pseudovirus 928-28 (HIV-1)
[6] = target: Env of HIV-1 pseudovirus CAAN5342.A2 (HIV-1)
[7] = target: Env of HIV-1 pseudovirus CNE17 (HIV-1)
[8] = target: Env of HIV-1 pseudovirus CNE21 (HIV-1)
[9] = target: Env of HIV-1 pseudovirus Ce1086_B2 (HIV-1)
[10] = target: Env of HIV-1 pseudovirus Ce703010054_2A2 (HIV-1)
[11] = target: Env of HIV-1 pseudovirus Du156.12 (HIV-1)
[12] = target: Env of HIV-1 pseudovirus MS208.A1 (HIV-1)
[13] = target: Env of HIV-1 pseudovirus Q23.17 (HIV-1)
[14] = target: Env of HIV-1 pseudovirus QH0692.42 (HIV-1)
[15] = target: Env of HIV-1 pseudovirus REJO4541.67 (HIV-1)
[16] = target: Env of HIV-1 pseudovirus RHPA4259.7 (HIV-1)
[17] = target: Env of HIV-1 pseudovirus ZM233M.PB6 (HIV-1)
[18] = target: Env of HIV-1 pseudovirus ZM247v1(Rev-) (HIV-1)
[19] = target: HIV-1 Env pseudovirus 3817.v2.c59 (HIV-1)
[20] = target: HIV-1 Env pseudovirus 620345.c01 (HIV-1)
[21] = target: HIV-1 Env pseudovirus 6240_08_TA5_4622 (HIV-1)
[22] = target: HIV-1 Env pseudovirus 6244_13_B5_4576 (HIV-1)
[23] = target: HIV-1 Env pseudovirus 6952.v1.c20 (HIV-1)
[24] = target: HIV-1 Env pseudovirus C1080.c03 (HIV-1)
[25] = target: HIV-1 Env pseudovirus C3347.c11 (HIV-1)
[26] = target: HIV-1 Env pseudovirus Ce1172_H1 (HIV-1)
[27] = target: HIV-1 Env pseudovirus Ce2060_G9 (HIV-1)
[28] = target: HIV-1 Env pseudovirus HIV-0013095-2.11 (HIV-1)
[29] = target: HIV-1 Env pseudovirus PVO.4 (HIV-1)
[30] = target: HIV-1 Env pseudovirus Q23.17 (HIV-1)
[31] = target: HIV-1 Env pseudovirus R1166.c01 (HIV-1)
[32] = target: HIV-1 Env pseudovirus REJO4541.67 (HIV-1)
[33] = target: HIV-1 Env pseudovirus T250-4 (HIV-1)
[34] = target: HIV-1 Env pseudovirus T278-50 (HIV-1)
[35] = target: HIV-1 Env pseudovirus X2088_c9 (HIV-1)
[36] = target: HIV-1 Env pseudovirus ZM135M.PL10a (HIV-1)
[37] = target: HIV-1 Env pseudovirus ZM214M.PL15 (HIV-1)

10-1074 (antibody)
IC50 [1]: 3 ng/mL | IC80 [1]: 0.013 µg/mL | IC50 [2]: 8 ng/mL | IC80 [2]: 0.059 µg/mL | IC50 [3]: 0.129 µg/mL | IC80 [3]: 0.563 µg/mL | IC50 [4]: 0.666 µg/mL | IC80 [4]: 6.53 µg/mL | IC50 [5]: 0.847 µg/mL | IC80 [5]: 4.7 µg/mL | IC50 [6]: 7 ng/mL | IC80 [6]: 0.036 µg/mL | IC50 [7]: 2.69 µg/mL | IC80 [7]: 13.3 µg/mL | IC50 [8]: 0.067 µg/mL | IC80 [8]: 0.181 µg/mL | IC50 [9]: > 50 µg/mL | IC80 [9]: > 50 µg/mL | IC50 [10]: > 50 µg/mL | IC80 [10]: > 50 µg/mL | IC50 [11]: 0.015 µg/mL | IC80 [11]: 0.076 µg/mL | IC50 [12]: > 50 µg/mL | IC80 [12]: > 50 µg/mL | IC50 [13]: 6 ng/mL | IC80 [13]: 0.021 µg/mL | IC50 [14]: 0.191 µg/mL | IC80 [14]: 0.929 µg/mL | IC50 [15]: > 50 µg/mL | IC80 [15]: > 50 µg/mL | IC50 [16]: 0.021 µg/mL | IC80 [16]: 0.118 µg/mL | IC50 [17]: 0.06 µg/mL | IC80 [17]: 0.349 µg/mL | IC50 [18]: 0.042 µg/mL | IC80 [18]: 0.186 µg/mL

VRC01 (antibody)
IC50 (Titer in TZM.bl cells) [19]: > 50 µg/mL | IC80 (Titer in TZM.bl cells) [19]: > 50 µg/mL | IC50 (Titer in TZM.bl cells) [20]: > 50 µg/mL | IC80 (Titer in TZM.bl cells) [20]: > 50 µg/mL | IC50 (Titer in TZM.bl cells) [21]: 0.61 µg/mL | IC80 (Titer in TZM.bl cells) [21]: 1.82 µg/mL | IC50 (Titer in TZM.bl cells) [22]: 0.21 µg/mL | IC80 (Titer in TZM.bl cells) [22]: 0.53 µg/mL | IC50 (Titer in TZM.bl cells) [23]: 0.04 µg/mL | IC80 (Titer in TZM.bl cells) [23]: 0.12 µg/mL | IC50 (Titer in TZM.bl cells) [24]: 3.4 µg/mL | IC80 (Titer in TZM.bl cells) [24]: 14.4 µg/mL | IC50 (Titer in TZM.bl cells) [25]: 0.17 µg/mL | IC80 (Titer in TZM.bl cells) [25]: 0.58 µg/mL | IC50 (Titer in TZM.bl cells) [26]: > 10 µg/mL | IC80 (Titer in TZM.bl cells) [26]: > 10 µg/mL | IC50 (Titer in TZM.bl cells) [27]: 0.29 µg/mL | IC80 (Titer in TZM.bl cells) [27]: 1.48 µg/mL | IC50 (Titer in TZM.bl cells) [28]: 0.11 µg/mL | IC80 (Titer in TZM.bl cells) [28]: 0.33 µg/mL | IC50 (Titer in TZM.bl cells) [29]: 0.22 µg/mL | IC80 (Titer in TZM.bl cells) [29]: 1.2 µg/mL | IC50 (Titer in TZM.bl cells) [30]: 0.09 µg/mL | IC80 (Titer in TZM.bl cells) [30]: 0.261 µg/mL | IC50 (Titer in TZM.bl cells) [31]: 1.7 µg/mL | IC80 (Titer in TZM.bl cells) [31]: 4.58 µg/mL | IC50 (Titer in TZM.bl cells) [32]: 0.06 µg/mL | IC80 (Titer in TZM.bl cells) [32]: 0.25 µg/mL | IC50 (Titer in TZM.bl cells) [33]: > 50 µg/mL | IC80 (Titer in TZM.bl cells) [33]: > 50 µg/mL | IC50 (Titer in TZM.bl cells) [34]: > 50 µg/mL | IC80 (Titer in TZM.bl cells) [34]: > 50 µg/mL | IC50 (Titer in TZM.bl cells) [35]: > 50 µg/mL | IC80 (Titer in TZM.bl cells) [35]: > 50 µg/mL | IC50 (Titer in TZM.bl cells) [36]: 0.35 µg/mL | IC80 (Titer in TZM.bl cells) [36]: 2.7 µg/mL | IC50 (Titer in TZM.bl cells) [37]: 0.44 µg/mL | IC80 (Titer in TZM.bl cells) [37]: 2.6 µg/mL
